Results: patent publication US20250388702A1 (Dana-Farber, published 2025)

T1: Human HHLA2-mIgG2a fusion protein (human; mouse, UniProt Q9UM44 23-344, limits assumed)
T1 construct: also called HHLA2-Ig; HHLA2-mouse IgG2a; not shown: mutated at IgG2a L235E, E318A, K320A, K322A
T1 sequence: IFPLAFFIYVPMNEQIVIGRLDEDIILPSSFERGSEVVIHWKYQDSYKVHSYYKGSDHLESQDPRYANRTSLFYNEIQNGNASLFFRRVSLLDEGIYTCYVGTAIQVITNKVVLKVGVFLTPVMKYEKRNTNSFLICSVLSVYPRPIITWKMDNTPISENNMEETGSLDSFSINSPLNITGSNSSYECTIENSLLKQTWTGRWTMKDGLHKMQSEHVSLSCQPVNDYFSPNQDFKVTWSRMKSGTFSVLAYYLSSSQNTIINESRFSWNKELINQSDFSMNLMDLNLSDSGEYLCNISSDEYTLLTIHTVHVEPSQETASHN


Legend:
[1] = target: T2, Human PD1, Sino Biological Cat #: HPLC-10377-H08H (human, UniProt Q15116 25-167); test: BLI (Octet RED96), antibody captured on the sensor, antigen in solution, 1:1 model
T2 construct: Bought; also called PD-1 (Octet antigen)
T2 sequence (Q15116 25-167 limits assumed): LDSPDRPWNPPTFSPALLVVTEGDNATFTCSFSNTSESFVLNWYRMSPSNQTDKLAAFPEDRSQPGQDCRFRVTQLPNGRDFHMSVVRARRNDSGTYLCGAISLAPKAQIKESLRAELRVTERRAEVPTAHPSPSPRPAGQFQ
Experimental: Binding experiments were performed on Octat Red af 25″° C. The human antibodies were loaded onto Anti-higG Fe Capture biosensors and the mouse antibodies were loaded onto Anti-migG Fe Capture biosensors both for 300 seconds. The ligand loaded sensors were dipped into a 3-fold series dilution (starting at 300 nad) of the antigens (PD-1 and KIR3DL3) for 240 seconds followed by dissociation for 400 seconds. Kinetic constanta were calculated using a monovalent (1:1) binding model Antigen: Haman PD1, Sino Biological Cat #: HPLC-10377-HOSH.

[2] = target: T1, Human HHLA2-mIgG2a fusion protein; test: cell microarray on transfected HEK293 cells, HHLA2-mIgG2a probe, AF647 anti-mouse IgG detection
Experimental: A library of ˜5500 full length cDNA clones covering more than 3,500 different plasma membrane proteins was arrayed in duplicate across 13 microarray slides (“slide sets”). Human HEK293 cells were grown above the cDNA clones and reverse-transfected. An expression vector (pIRES-hEGFR-IRES-ZsGreen1) was spotted in quadruplicate on every slide and was used to ensure that a minimal threshold of transfection efficiency had been achieved or exceeded on every slide.
Two replicate slides were screened for each of the 13 slide sets. Fluorescent images were analyzed and quantitated (for transfection efficiency) using ImageQuant software (GE). A protein ‘hit’ was defined as duplicate spots showing a raised signal compared to background levels. This was achieved by visual inspection using the images gridded on the ImageQuant software.

Binder | Kd [1] [nM] | koff [1] [s⁻¹] | kon [1] [M⁻¹ s⁻¹] | binding result [2]
PD-1 EH13.2A11.17.1 human IgG4 (S228P) (antibody, V domains shown, Chimeric: mouse EH13 variable domains on human IgG4 (S228P) and human kappa (Km3); The printed word SignalPeptide_ is a placeholder and is left out; also called LP PD-1 mAb (TP-31850); PD-1 mAb EH13 human IgG4) VH: EVKLVESGGGLVQPGGSLKLSCAASGFTFSSFTLSWVRQTPEKRLEWVAYISYGGADTYYPDTVKGRFTIFRDNAKNTLYLQMSSLKSEDTARYYCARHGPYGKGDYYAMDYWGQGTSVTVSS VL: not shown | 6.88 | 0.00137 | 199000 | 
PD-1 mAb EH13.2A11.17.1 (antibody, V domains shown, Parental mouse hybridoma antibody; also called parental control hybridoma) VH: EVKLVESGGGLVQPGGSLKLSCAASGFTFSSFTLSWVRQTPEKRLEWVAYISYGGADTYYPDTVKGRFTIFRDNAKNTLYLQMSSLKSEDTARYYCARHGPYGKGDYYAMDYWGQGTSVTVSS VL: not shown | 7.1 | 0.00154 | 216000 | 

Second part, the binder after the results:

Kd [1] [nM] | koff [1] [s⁻¹] | kon [1] [M⁻¹ s⁻¹] | binding result [2] | Binder
 |  |  | no binding (tested: 20 ug/ml) | KIR2DS1 (receptor, UniProt Q14954 22-304, looked up, whole, on cells) HEGVHRKPSLLAHPGRLVKSEETVILQCWSDVMFEHFLLHREGMFNDTLRLIGEHHDGVSKANFSISRMKQDLAGTYRCYGSVTHSPYQLSAPSDPLDIVIIGLYEKPSLSAQPGPTVLAGENVTLSCSSRSSYDMYHLSREGEAHERRLPAGTKVNGTFQANFPLGPATHGGTYRCFGSFRDSPYEWSKSSDPLLVSVTGNPSNSWPSPTEPSSETGNPRHLHVLIGTSVVKIPFTILLFFLLHRWCSDKKNAAVMDQEPAGNRTVNSEDSDEQDHQEVSYA
 |  |  | no binding (tested: 20 ug/ml) | KIR2DS3 (receptor, UniProt Q14952 22-304, looked up, whole, on cells) HEGFRRKPSLLAHPGRLVKSEETVILQCWSDVMFEHFLLHREGTFNDTLRLIGEHIDGVSKANFSIGRMRQDLAGTYRCYGSVPHSPYQFSAPSDPLDIVITGLYEKPSLSAQPGPTVLAGESVTLSCSSWSSYDMYHLSTEGEAHERRFSAGPKVNGTFQADFPLGPATQGGTYRCFGSFHDSPYEWSKSSDPLLVSVTGNPSNSWPSPTEPSSKTGNPRHLHVLIGTSVVKLPFTILLFFLLHRWCSDKKNASVMDQGPAGNRTVNREDSDEQDHQEVSYA
 |  |  | no binding (tested: 20 ug/ml) | KIR2DL3 (receptor, UniProt P43628 22-341, looked up, whole, on cells) HEGVHRKPSLLAHPGPLVKSEETVILQCWSDVRFQHFLLHREGKFKDTLHLIGEHHDGVSKANFSIGPMMQDLAGTYRCYGSVTHSPYQLSAPSDPLDIVITGLYEKPSLSAQPGPTVLAGESVTLSCSSRSSYDMYHLSREGEAHERRFSAGPKVNGTFQADFPLGPATHGGTYRCFGSFRDSPYEWSNSSDPLLVSVTGNPSNSWPSPTEPSSETGNPRHLHVLIGTSVVIILFILLLFFLLHRWCCNKKNAVVMDQEPAGNRTVNREDSDEQDPQEVTYAQLNHCVFTQRKITRPSQRPKTPPTDIIVYTELPNAEP
